The labels stand for the following.
B1: Disabled homolog 2 (Mus musculus), P98078-1 (parent)
chain: MSNEVETSTTNGQPDQQAAPKAPSKKEKKKGSEKTDEYLLARFKGDGVKYKAKLIGIDDVPDARGDKMSQDSMMKLKGMAAAGRSQGQHKQRIWVNISLSGIKIIDEKTGVIEHEHPVNKISFIARDVTDNRAFGYVCGGEGQHQFFAIKTGQQAEPLVVDLKDLFQVIYNVKKKEEDKKKVEEANKAEENGSEALMTLDDQANKLKLGVDQMDLFGDMSTPPDLNSPTESKDILLVDLNSEIDTNQNSLRENPFLTNGVTSCSLPRPKPQASFLPENAFSANLNFFPTPNPDPFRDDPFAQPDQSAPSSFDSLTSPDQKKASLSSSSTPQSKGPLNGDTDYFGQQFDQLSNRTGKPEAQGGPWPYPSSQTQQAVRTQNGVSEREQNGFHIKSSPNPFVGSPPKGLSVPNGVKQDLESSVQSSAHDSIAIIPPPQSTKPGRGRRTAKSSANDLLASDIFASEPPGQMSPTGQPAVPQSNFLDLFKGNAPAPVGPLVGLGTVPVTPPQAGPWTPVVYSPSTTVVPGAIISGQPPSFRQPLVFGTTPAVQVWNQSPSFATPASPPPPTVWCPTTSVAPNAWSSTSPLGNPFQSNNIFPPPTMSTQSSPQPMMSSVLATPPQPPPRNGPLKDIPSDAFTGLDPLGDKEVKEVKEMFKDFQLRQPPLVPSRKGETPPSGTSSAFSSYFNNKVGIPQEHVDHDDFDANQLLNKINEPPKPAPRQGVLLGTKSADNSLENPFSKGFSSSNPSVVSQPASSDPHRSPFGNPFA
partner: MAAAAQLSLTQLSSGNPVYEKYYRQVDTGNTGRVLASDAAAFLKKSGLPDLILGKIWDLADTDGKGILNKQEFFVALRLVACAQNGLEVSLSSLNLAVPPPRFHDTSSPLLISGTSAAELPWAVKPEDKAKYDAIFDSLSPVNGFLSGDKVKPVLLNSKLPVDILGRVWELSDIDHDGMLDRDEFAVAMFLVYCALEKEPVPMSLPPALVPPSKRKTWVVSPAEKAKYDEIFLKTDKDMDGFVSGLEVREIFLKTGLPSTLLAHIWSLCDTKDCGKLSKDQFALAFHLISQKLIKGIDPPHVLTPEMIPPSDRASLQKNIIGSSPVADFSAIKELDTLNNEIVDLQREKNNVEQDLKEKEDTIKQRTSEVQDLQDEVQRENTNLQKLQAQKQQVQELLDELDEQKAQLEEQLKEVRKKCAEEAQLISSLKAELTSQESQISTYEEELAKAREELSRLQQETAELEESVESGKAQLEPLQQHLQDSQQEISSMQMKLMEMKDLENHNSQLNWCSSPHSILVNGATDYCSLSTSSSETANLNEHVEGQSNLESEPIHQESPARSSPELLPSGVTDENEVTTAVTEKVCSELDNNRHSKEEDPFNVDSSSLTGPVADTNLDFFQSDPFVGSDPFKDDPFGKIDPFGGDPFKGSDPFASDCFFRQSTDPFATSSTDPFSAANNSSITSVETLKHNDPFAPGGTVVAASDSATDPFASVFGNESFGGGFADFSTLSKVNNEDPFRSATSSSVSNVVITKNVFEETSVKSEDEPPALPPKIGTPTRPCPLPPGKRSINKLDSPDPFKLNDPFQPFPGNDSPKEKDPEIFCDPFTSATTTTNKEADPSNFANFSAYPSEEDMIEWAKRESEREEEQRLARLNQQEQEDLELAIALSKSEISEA
B2: Disabled homolog 2 (Mus musculus), P98078-1 (parent)
chain: B1 chain

Variants of B1 are the subject of the first test. To be noted: with eps15_human EPS15, P42566.
As to F589V;F736V;F765V, the “effect of a mutation on the interaction” value is “disrupting interaction”.

The next test covers variants of B2. Conditions: with itsn1_mouse Itsn1, Q9Z0R4.
Sequence of itsn1_mouse Itsn1, Q9Z0R4 (Q9Z0R4 whole entry): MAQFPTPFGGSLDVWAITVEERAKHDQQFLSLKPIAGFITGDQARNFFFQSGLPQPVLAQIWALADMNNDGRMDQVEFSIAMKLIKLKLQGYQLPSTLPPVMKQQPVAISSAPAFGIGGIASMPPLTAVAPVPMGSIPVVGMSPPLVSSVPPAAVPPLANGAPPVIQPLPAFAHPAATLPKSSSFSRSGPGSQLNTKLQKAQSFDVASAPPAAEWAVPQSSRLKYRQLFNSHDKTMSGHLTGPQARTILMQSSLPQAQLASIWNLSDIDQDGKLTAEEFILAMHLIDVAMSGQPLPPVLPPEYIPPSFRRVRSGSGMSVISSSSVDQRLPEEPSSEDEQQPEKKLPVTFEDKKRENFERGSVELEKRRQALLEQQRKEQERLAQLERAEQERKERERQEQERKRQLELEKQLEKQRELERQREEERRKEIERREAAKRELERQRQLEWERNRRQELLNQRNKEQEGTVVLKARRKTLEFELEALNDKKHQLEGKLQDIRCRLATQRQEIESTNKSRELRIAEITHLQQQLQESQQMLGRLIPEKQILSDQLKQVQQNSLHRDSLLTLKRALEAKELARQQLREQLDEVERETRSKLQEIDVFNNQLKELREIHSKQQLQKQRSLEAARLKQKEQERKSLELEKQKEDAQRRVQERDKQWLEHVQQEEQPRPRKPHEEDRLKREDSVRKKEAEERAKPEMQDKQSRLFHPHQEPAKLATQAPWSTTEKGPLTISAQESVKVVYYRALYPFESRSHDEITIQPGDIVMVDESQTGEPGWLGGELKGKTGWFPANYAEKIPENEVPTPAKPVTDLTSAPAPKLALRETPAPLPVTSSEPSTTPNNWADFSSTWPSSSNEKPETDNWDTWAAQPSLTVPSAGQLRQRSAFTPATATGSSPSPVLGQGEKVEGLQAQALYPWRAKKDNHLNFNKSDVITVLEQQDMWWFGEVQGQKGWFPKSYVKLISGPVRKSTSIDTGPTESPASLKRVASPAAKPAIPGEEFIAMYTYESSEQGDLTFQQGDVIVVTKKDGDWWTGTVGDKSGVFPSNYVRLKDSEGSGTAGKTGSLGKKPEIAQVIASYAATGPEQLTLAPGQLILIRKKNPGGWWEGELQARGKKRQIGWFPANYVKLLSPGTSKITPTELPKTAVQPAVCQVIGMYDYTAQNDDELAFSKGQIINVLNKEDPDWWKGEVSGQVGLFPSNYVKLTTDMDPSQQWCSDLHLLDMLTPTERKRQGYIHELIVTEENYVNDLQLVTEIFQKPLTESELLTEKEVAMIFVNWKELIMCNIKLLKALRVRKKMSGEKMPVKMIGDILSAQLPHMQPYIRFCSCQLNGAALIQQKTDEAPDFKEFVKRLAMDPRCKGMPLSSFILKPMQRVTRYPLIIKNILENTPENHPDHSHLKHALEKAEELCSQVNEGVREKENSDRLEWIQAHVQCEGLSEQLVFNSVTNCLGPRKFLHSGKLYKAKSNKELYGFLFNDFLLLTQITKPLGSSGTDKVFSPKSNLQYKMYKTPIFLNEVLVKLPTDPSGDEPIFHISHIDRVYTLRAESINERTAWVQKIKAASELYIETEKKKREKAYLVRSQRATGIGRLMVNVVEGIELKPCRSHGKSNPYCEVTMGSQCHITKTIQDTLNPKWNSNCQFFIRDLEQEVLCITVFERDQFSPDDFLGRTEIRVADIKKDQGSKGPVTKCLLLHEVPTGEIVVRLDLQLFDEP
Consider F255V;F398V;F589V;F736V;F765V, for which the “effect of a mutation on the interaction” value is “disrupting interaction”. Take F255V;F398V: the “effect of a mutation on the interaction” value was “decreasing interaction”. Same read-out and setting: the same measure for F589V;F736V;F765V: “decreasing interaction”.
